Test results published in the supplement of paper PMC9170038.

Test system: MS2 coat protein
Experiment: apparent KD of MS2 coat protein; designed switch direction (-1 OFF switch, 1 ON switch): -1; higher = weaker reporter binding
Procedure, shortened: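 The reported apparent KD is a per-design median over clusters, from curve fits of normalised cluster fluorescence. Protein titrations used SNAP-549-labelled MS2 coat protein, doubled from 0.7 or 1.5 nM to 3 µM, in Tris-HCl pH 7.5 buffer with KCl, MgCl2, BSA, DTT, tRNA and Tween-20, with no input, 200 uM small-molecule ligand, or an oligonucleotide input. The RNA switches were transcribed on Illumina chips by stalled E. coli RNA polymerase.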

[1] = Eterna round: R95, input ligand: microRNA oligo, concentration not stated
[2] = input ligand: microRNA oligo, concentration not stated
[3] = Eterna round: R95, input ligand: FMN 200 uM
[4] = Eterna round: R95, input ligand: none

Sequence	apparent KD of MS2 coat protein (input ligand: FMN 200 uM) [nM]	apparent KD of MS2 coat protein (input ligand: none) [nM]	apparent KD of MS2 coat protein [1] [nM]	apparent KD of MS2 coat protein [2] [nM]	apparent KD of MS2 coat protein [3] [nM]	apparent KD of MS2 coat protein [4] [nM]
ACAAGCUAAAUCAUAUCUUACAUGAGGAUCACCCAUGUUUUUGCAAUUAUGUUUGGGCUCUUUUGUGCUCGUCUUAU [JR_STOV1_Sub050] (Eterna round: R97, puzzle: Sensor, turn-off variant 1)	16.1	17.6				
AACCUCGGAGGAUAUACCUACCGAUUCACAAGUGUCACAUCACAUGAGGAUCACCCAUGUAGAAGGUCGAGGCG [Onorzais] (puzzle: Exclusion 2)			30.1			
UCGGCGCGAGGAUAUGCGGUUUGUGCUUUGGGCCCUCGCGUACAUGAGGAUCACCCAUGUAGAAGGCGCGCCGC [Apr-15 SS2-46] (puzzle: Exclusion 2)			95.6			
AUAAAUAAUGCAGGAUAUGUCGGCGAAAGGCCGGCAGAAGGGCAGCGUGGAUGUAUCCUGAACAUGAGGAUCACCCAUGUGAAA [Ederisbi] (Eterna round: R96, puzzle: Exclusion NG 1)	209	347		168		
GCAAGACAUGAGGAUCACCCAUGUGAGGAUAUUGCUCGACACCUGCGCGAAGAGUCGAUAAGAAGGUACAGGGU [Eternabot (L2) Solution 90] (Eterna round: R97, puzzle: Exclusion 1)	69.4	52.6				
CGUGUGUGAGGAUAUGACAAUGGUAUCUUCGGAUACCAUUGUCAGAAGGUACAUGAGGAUCACCCAUGUAGAUC [Exclusion 4 - Mod Brourd Ex 4-3: 20 v.2] (Eterna round: R96, puzzle: Exclusion 4)	115	59.8		41.4		
ACUAAUUGAGGAUAUACAUUGAUUUACAUGAGGAUCACCCAUGUUCAAACAUGUAUUUAUGUAGAAGGCAGAAGAA [JR_Ex5_Sub065] (Eterna round: R97, puzzle: Exclusion 5)	23	17.5				
UAGUGAAACACAGGAUAUCGCCUCUUAUUACAUGAGGAUCACCCAUGUUUAGUUAGUUACAUGUACGAGAAGGGUGAAGUAGUU [JR_ExcNG2_Sub040] (Eterna round: R96, puzzle: Exclusion NG 2)	1110	1430		674		
GUUUGACAUGAGGAUCACCCAUGUGAGGAUAUCGGCUGGUACGUGUUGGCUGGCAUCUCGAGAAGGCACAUAGG [Exclusion 1 V58] (puzzle: Exclusion 1)			109			
CUGUUUUUCGCAGGAUAUGCUCCUCCUUUAUUAGCAGAAGGGCGUUAAACAUGAGGAUCACCCAUGUAUGGUAAUGACAUUUUC [JR_ExcNG1_Sub062] (Eterna round: R96, puzzle: Exclusion NG 1)				29.8		
AGCUGUGAGUGAGGAUAUCUGCUGUUGUCAGUCGGAGAAGGCGCGGACAGAACAUGAGGAUCACCCAUGUGUAUGGGCGGCCUC [Usatia] (Eterna round: R96, puzzle: Exclusion NG 1)	217	85.5		43.6		
CAUUGUUAUCGAGGAUAUCCUAUUGAGAUUCUAGGAGAAGGCGGACUAAACAUGAGGAUCACCCAUGUGGGACGGAUGCUAGGG [Ex NG1 #30] (Eterna round: R96, puzzle: Exclusion NG 1)	31.4	25.2		19.8		
UUCCUACAUGAGGAUCACCCAUGUGAGGAUAUGCAUCGUAUUAUUCUCGUAUGUAGUAGCAGAAGGCGCAUUGG [Starry Exclusion 1.1] (Eterna round: R96, puzzle: Exclusion 1)	82.5	29		15.9		
CUUUUGUCAGGAUAUGAGUAGUAGAACAAUAGUACUACUACUCAGAAGGGACAUGAGGAUCACCCAUGUUCCUC [Fiskers Ex 4 Super stable 44 mod 19] (puzzle: Exclusion 4)			16.2			
CGGACCCGAGGAUAUCGUAAACCCGACAUGAGGAUCACCCAUGUCAUCCUCACGGCGCCACGAGAAGGCGGUGUUA [Ansolaedra] (puzzle: Exclusion 5)			21.8			
AGUUACUACAAGCUUUGGGACAUGAGGAUCACCCAUGUUCGUCUUAUUGUAGUAGGUACGCUGACGUACCUACUACU [Mat - Sensor v3 - turn-off var 1 - JL Mod - D6] (puzzle: Sensor v3, turn-off variant 1)			42.8		15.9	14.5
UGCAGACGAGGAUAUAGAUUUAGAUACAUGAGGAUCACCCAUGUAUACAUGUAUUUAGAUUUAGAAGGCGUCUGCA [E5/14-A2] (Eterna round: R97, puzzle: Exclusion 5)	422	886				
UACCUGAGGCAAAGCUUUAGGCUUACAUGAGGAUCACCCAUGUAGGAUAUGGUAGGCUUUGCUUACCAGAAGGACAUGGAAAUU [Mat - Exclusion NG 3 - Mod of JL - D22] (Eterna round: R96, puzzle: Exclusion NG 3)	64.3	19.1		18		
AGUAGUAGUAUCCGAUCCUACAUGAGGAUCACCCAUGUAGCUGGACGUGCACGCGAUGCUCGUCAGACUACCAGAUG [salish99_TOv1_r3_044] (puzzle: Sensor v3, turn-off variant 1)			131		181	150
GAUAGAGAGCAGGAUAUCUUGGGUAAGUGUUGUAGAGAAGGGCUCACAUGAGGAUCACCCAUGUGGUCCAAGAU [JL Dibiri mod 07] (puzzle: Exclusion 6)			16.9		35.2	17.2
UGAGCUUACGUAGGAUAUGAGGAUCACCCAUAGAAGGAUAUCGAAAGAGAAGGUCUGAGGAUUACCCAGAAGGACGUGGGCUCU [pwkr exNG2 2xF5 2xFMN.12] (Eterna round: R96, puzzle: Exclusion NG 2)	732	151		122		
UUUGUUUUGCAAGGAUAUGUUUAAUUUUAGUUUCCUUACACAUGAGGAUCACCCAUGUUAUACUUACAGAAGGUGCGUAAUUUG [Excl-NG2-LRO03] (Eterna round: R96, puzzle: Exclusion NG 2)				122		
ACUCUACAUGAGGAUCACCCAUGUGAGGAUAUCAAAGCCAGAGCGGAUCUCUGGUCCAUGAGAAGGUGCAUGGU [ElNandoxlusion 3 - Jieux - Exclusion 1] (Eterna round: R97, puzzle: Exclusion 1)	73.4	22.3				
CGAUAUAAGUCAGGAUAUGAGCGCAACUGACGAUCAGAAGGGACACAUGAGGAUCACCCAUGUGAUUUAUCAAUAUUAUACAUC [Prohibition 91 - Jieux - Exclusion NG 1] (Eterna round: R96, puzzle: Exclusion NG 1)	36.5	31.6		27.3		
GGGCUGUCAGGAUAUCCCGGGCCCGGGUAAACCCGGGUUUGGGAGAAGGGACAUGAGGAUCACCCAUGUGGCCC [-39.8, -38.8 kcal, A 20%, 5cbis-0] (Eterna round: R97, puzzle: Exclusion 4)	34.8	34.1				
